{
  "source": "patent US20220031830A1",
  "key": {"[1]": {"biological_target": "11MUTB Env trimer (SOSIP.664) derived from wtBG505 (HIV-1 BG505)", "experiment": "SPR (Biacore T200), SOSIP captured on 8ANC195 IgG, Fab injected, equilibrium fit 1:1"}, "[2]": {"biological_target": "RC1 Env trimer (BG505-derived SOSIP.664 soluble gp140) (HIV-1 BG505)", "experiment": "SPR (Biacore T200), SOSIP captured on 8ANC195 IgG, Fab injected, equilibrium fit 1:1"}},
  "data": [
    {"substance": "Fab of the common inferred germline (iGL) precursor of PGT121 and 10-1074", "values": [
      {"measurement": "Kd", "setting": "[1]", "value": 50, "unit": "µM"},
      {"measurement": "Kd", "setting": "[2]", "value": 50, "unit": "µM"}
    ]}
  ]
}
